Test results taken from the DeepSol protein solubility set.

Test: soluble on expression in E. coli; label from the status in PepcDB or PDB records
In the case of “MYVSSPTLTDKVSKMICQDILTGELKPGQKLVVAELKEKYNVGASPIREALVQLSWSKYVKLAPQKGCWVAPVCKHELNDLYESLRMTASFLLKKAIMTGDENWELDVLTSYHKLSRVNLDQGFCWREWEERHYHFLEALLEGANSHNLFTFFRDILNQIKRYHYFAMQVLGTNNQGHCNIDEQEMIMKLSLSKNSDDAVQFLDRYLLKSLQCVETAIDNPL”, the “soluble on expression in E. coli” value is reported as “soluble”.
In the case of “MYYHALKLSRLAMLTLAGVAVSASAIAADSAPTSQIGPTAEAYIVSHPDKVGEVVATYLAEHPEFLVAASETLHQRQQIAQQQAYVQLALQYRAELLSSSSPSVGPNEAKAAVVMFFDYQCSWCSKMAPVVENLIKANPDTRFIFKEFPIFSSRWPVSGLAARVGEQVWLTQGGAKYLDWHNALYATGKVEGALTEHDVYTLAQHYLTPTQLAAVKEAQSSGAVHDALLTNQALAQHMDFSGTPAFVVMPQTQDGDVKRVTVIPGSTTQDMLQMAIQKAKG”, the “soluble on expression in E. coli” value is reported as “not soluble”.
In the case of “NAIMDLQTRNTRGLSTLVVRDIGELMMAGDMAVIERYVADVRGKGAVLDLRIYDAAGRPAGKKQDAPDGEVQAALTSGATAEKRHKVDGRHVLSFIVPLANEVRCQSCHEQGARFNGAMLLTTSLEEGYAGARN”, the “soluble on expression in E. coli” value is reported as “soluble”.
In the case of “NALRRDPNLPVHIRGWLHKQDSSGLRLWKRRWFVLSGHCLFYYKDSREESVLGSVLLPSYNIRPDGPGAPRGRRFTFTAEHPGMRTYVLAADTLEDLRGWLRALGRASRAEGDDYGQPRSPAR”, the “soluble on expression in E. coli” value is reported as “soluble”.
For “NATNRRDTVLAAMVDAGKLTKSQAKEAASIGMKNRLADTYAGKINDYRYPSYFDAVVNEAIDTYGISEKDIVNNGY”, the “soluble on expression in E. coli” value was “not soluble”.
In the case of “NDRFSWDTQFNISTIKNKLTSLIDEKPIPVGNHVLQVGQPIGSFYMYKMDGIYQDNQEVPEKLYAKGVRAGDIKYADKDNDGDLTPADKEIVGKPLPDFFGGLTNRFRYGNFDLTIFNTFSVGNDVYATGMGGIDAVGHNNYGMRKDIAANRWTGPGTNNSIPRAMISTHNTQASTYLLHDGSYFKFKDVTLGYTLPSNLTQKLNISNMRVYLSAQNLWTISSYPGYDPEVSYSVNNSKTMGEDAMTVPQLRTFVCGFNLTF”, the “soluble on expression in E. coli” value is reported as “not soluble”.
For “NGAQAFVSAQTSTIPKTAFTAHDFVDYTLPQEQKGKEQKEQQWMKNSQTKDTDVHPYADFAVLEILLFPDSSTDRKIFNHFIQPAIRAYKQLGDSLNIFANQTLDQPKHNRYYLLGYPFLRNKAASLFLNQTEQR”, the “soluble on expression in E. coli” value was “soluble”.
For “NGYEALIMTHSAVTDPPLMIRSADNSLIKADDKTLLTALEAEGIGSYSFILTGEGLVKTKYRQQAVSLMGVDDRYPRTVKIDSIVFAGTFATDTLSGATALNVGAAIATEMQLGAGFVEAVEVIVPRRIGLINPLVPAGAFKSLQGQVASVFASGLQPEDNSIILSIDSLRKLLDYSDHEAEAVAIQLRTGSDAEQIALRLKETLGDSYQVLDLAGQHPEITHLIAMEKWMS”, the “soluble on expression in E. coli” value was “not soluble”.
In the case of “NIEQGLYAMLGVYVSSKTIDVVQVGFNRSKMALIITKQEQAVKEAVLQKIDRGVTKISAVGGYTDDDRPILMCVVGQTEFTKLKQIVKQIDESAFVIVADASEVLGEGFKRA”, the “soluble on expression in E. coli” value is reported as “not soluble”.
With “NKFECNLVHSKVPMGKFYFRSEPNNKISFISDIRGEGKEWQGATLISQNAPWGEELYRKVESSLTVTKPSRRFVFRKGAPSLMKAIAGGSWITLVLEGKDASALSEVRIPTIQIQKALGEFNACRERLPK” the “soluble on expression in E. coli” value was “not soluble”.
In the case of “NKNFSWNVNFNLTHFKNKVLELSPELNGQLIDGARIYREDESMYQLYLPKYVGVDSETGESLWALVTPDENGNTVTKSYSVASENRFASGDILPKVYGGFGTSVTAYGFDLSVSFAYQLGGRILDYTYQGLMDVAATGSALHKDMLKAWTPENKNTDVPRMNINDQYTNRLTDRFLTSSDYLSLQNITLGYTLPKSLTRKMQIDGVRVFFVADNVALLTARKGLDPRQGYVAADNVYSPIRTISGGISLNF”, the “soluble on expression in E. coli” value is reported as “not soluble”.
With “NKSIRMTPSQVAFEIRGTLLPGEVFAICGSCDALGNWNPQNAVALLPENDTGESMLWKATIVLSRGVSVQYRYFKGYFLEPKTIGGPCQVIVHKWETHLQPRSITPLESEIIIDDGQFGIHNGVETLDSGWLTCQTEIRLRLHYSEKPPVSITKKKLKKSRFRVKLTLEGLEEDDDDRVSPTVLHKMSNSLEISLISDNEFKCRHSQPECGYGLQPDRWTEYSIQTMEPDNLELIFDFFEEDLSEHVVQGDALPGHVGTACLLSSTIAESGKSAGILTLPIMSRNSRKTIGKVRVDYIIIKPLPGYSCDMKSSFSKYWKPRIPLDVGHRGAGNSTTTAQLAKVQENTIASLRNAASHGAAFVEFDVHLSKDFVPVVYHDLTCCLTMKKKFDADPVELFEIPVKELTFDQLQLLKLTHVTALKSKDRKESVVQEENSFSENQPFPSLKMVLESLPEDVGFNIEIKWICQQRDGMWDGNLSTYFDMNLFLDIILKTVLENSGKRRIVFSSFDADICTMVRQKQNKYPILFLTQGKSEIYPELMDLRSRTTPIAMSFAQFENLLGINVHTEDLLRNPSYIQEAKAKGLVIFCWGDDTNDPENRRKLKELGVNGLIYDRIYDWMPEQPNIFQVEQLERLKQELPELKSCLCPTVSRFVPSSLCGESDIHVDANGIDNVENA” the “soluble on expression in E. coli” value was “soluble”.
In the case of “NLDALREVLECPICMESFTEEQLRPKLLHCGHTICRQCLEKLLASSINGVRCPFCSKITRITSLTQLTDNLTVLK”, the “soluble on expression in E. coli” value is reported as “soluble”.
With “NMAGMNDKASMNDKASMTVKINESLPQGNGKALGTVTVTETAYGLLFTPHLTGLAPGIHGFHLHEKPSCAPGMKDGKAVPALAAGGHLDPNKTGVHLGPYNDKGHLGDLPGLVVNADGTATYPVLAPRLKSLSEVKQHALMIHAGGDNYSDHPMPLGGGGARMACGVIE” the “soluble on expression in E. coli” value was “soluble”.
With “NNTPVTNKLKAYGDANFNFTNNSIADAEKQVQEAYKGLLNLNEKNASDKLLVEDNTAATVGNLRKLGWVLSSKNGTRNEKSQQVKHADEVLFEGKGGVQVTSTSENGKHTITFALA” the “soluble on expression in E. coli” value was “soluble”.
With “NQKMIASAFNNALGAIQDGFDATNSALGKIQSVVNANAEALNNLLNQLSLVPRGSGGSGGSGGLNVTLLDLTYEMNRIQDAIKKLNESYINLKE” the “soluble on expression in E. coli” value was “soluble”.
With “NQLLTQQANEDGLTKLFNRRYIDQKLDSMVAWHGRHHMPMAMILLDVDFFKPFNDNYGHIEGDRCLQAIANQLKATFCRSGEYVGRYGGEEFVVLLSSTDAQTAEREAERIQEAMYFLDYQHEFSSVANRVTVSQGVFVFQPTGKENQADLYATADRALYTSKSLGRNTYTMVNAS” the “soluble on expression in E. coli” value was “not soluble”.
In the case of “NSAAIWGEGDVSALQSDTESGAYIEESSMVAADPLADYLSKPKLEALIASTKKQMLAAAKELDFLEAARLRDEAARLEKKLEQLTA”, the “soluble on expression in E. coli” value is reported as “not soluble”.
In the case of “NSDALVSIQTSKLPKTAYTATDFIKTAQYKYNHIVSNTVYELDLFQNAVSYADFAVLELELNLANNRDQQIFDSFINPAVTAYEKLGNSLGLFSNLQLDQYVDDTHYLLGYPLLKREKTSY”, the “soluble on expression in E. coli” value is reported as “not soluble”.
For “NSDSECPLSHDGYCLHDGVCMYIEALDKYACNCVVGYIGERCQYRDLKWWELR”, the “soluble on expression in E. coli” value was “soluble”.
For “NSDSMILVTVNPKTKKTTMTSLERDTLTTLSGPKNNEMNGVEAKLNAAYAAGGAQMAIMTVQDLLNITIDNYVQINMQGLIDLVNAVGGITVTNEFDFPISIAENEPEYQATVAPGTHKINGEQALVYARMRYDDPEGDYGRQKRQREVIQKVLKKILA”, the “soluble on expression in E. coli” value was “not soluble”.
In the case of “NTLGMVMHADGGYLGSKPYCASGQYIKRMSDYCRGCAYKVTESTTDDACPFNALYWHFLMRHSDQLRRNQRMGMIYKNLDRMAEAKQQALWERGEHLLARLDAGEAL”, the “soluble on expression in E. coli” value is reported as “not soluble”.
For “NTLKAGQTQSFNDWFPDDNFASEVAAAFEMQATDTISEEQLATLTSLDCHNSSITDMTGIEKLTGLTKLICTSNNITTLDLSQNTNLTYLACDSNKLTNLDVTPLTKLTYLNCDTNKLTKLDVSQNPLLTYLNCARNTLTEIDVSHNTQLTELDCHLNKKITKLDVTPQTQLTTLDCSFNKITELDVSQNKLLNRLNCDTNNITKLDLNQNIQLTFLDCSSNKLTEIDVTPLTQLTYFDCSVNPLTELDVSTLSKLTTLHCIQTDLLEIDLTHNTQLIYFQAEGCRKIKELDVTHNTQLYLLDCQAAGITELDLSQNPKLVYLYLNNTELTELDVSHNTKLKSLSCVNAHIQDFSSVGKIPALNNNFEAEGQTITMPKETLTNNSLTIAVSPDLLDQFGNPMNIEPGDGGVYDQATNTITWENLSTDNPAVTYTFTSENGAIVGTVTTPFEAPQPIK”, the “soluble on expression in E. coli” value was “soluble”.
For “NTWKIFVGNVSAACTSQELRSLFERRGRVIECDVVKDYAFVHMEKEADAKAAIAQLNGKEVKGKRINVELSTKGQKK”, the “soluble on expression in E. coli” value was “soluble”.
With “NVFMRKKDNTIDYRYFIEPNIMTSNIDDLLLEKPVAFQLEQFQKELIDSNVNPQLVQLVVDDATI” the “soluble on expression in E. coli” value was “not soluble”.
In the case of “NVQHQLAQFQQLQQQAQAISVQKQTVEMQINETQKALEELSRAADDAEVYKSSGNILIRVAKDELTEELQEKLETLQLREKTIERQEERVMKKLQEMQVNIQEAMKGAG”, the “soluble on expression in E. coli” value is reported as “soluble”.
With “PCFALTSPEAGSDAGSIPDYGVVCKGEWEGKEVLGMRLTWNKRYITLAPVATVLGLAFKLRDPEGLLGDKEDLGITCALIPTDVKGVEIGNRHFPLNVPFQNGPTRGKDIFVPIDFIIGG” the “soluble on expression in E. coli” value was “not soluble”.
With “PDPNRFDRDRLFNAVSRGVPEDLAGLPEYLSKTSKYLTDSEYTEGSTGKTCLMKAVLNLKDGVNACILPLLQIDRDSGNPQPLVNAQCTDDYYRGHSALHIAIEKRSLQCVKLLVENGANVHARACGRFFQKGQGTCFYFGELPLSLAACTKQWDVVSYLLENPHQPASLQATDSQGNTVLHALVMISDNSAENIALVTSMYDGLLQAGARLCPTVQLEDIRNLQDLTPLKLAAKEGKIEIFRHILQREFS” the “soluble on expression in E. coli” value was “soluble”.
With “PDVSALDEVVVEAYGSKTRKITTTGAVTSVDVATLQTPATSLANMLGGRVAGIISTQGSGEPGKNISDFWIRGIGTFGANASALVLIDGLEGSLNDVDPADIESFSVLKDASATAMYGVRGANGVVLVTTKRGKQEK” the “soluble on expression in E. coli” value was “not soluble”.
With “PEDPSDLLQHVKFQSSNFENILTWDSGPEGTPDTVYSIEYKTYGERDWVAKKGCQRITRKSCNLTVETGNLTELYYARVTAVSAGGRSATKMTDRFSSLQHTTLKPPDVTCISKVRSIQMIVHPTPTPIRAGDGHRLTLEDIFHDLFYHLELQVNRTYQMHLGGKQREYEFFGLTPDTEFLGTIMILVPTWAKESAPYMCRVKTLPDRTWT” the “soluble on expression in E. coli” value was “soluble”.
With “PEGSRDILFEECTIKNNIENILRNSYINVGYEEVRSPTLEFYDVYNLENQPISQEKMYKLFDNTGRILVLRPDMTTPIARICATKLKNRVYPLKLSYTGNIYRMNKALNGKISEITQSGIEILGFSSLKADAEVIITAIKAILKTGLKNFKIEIGQVEFFKSIISDTALKEQDTEKLRNFIENKNFSKVEEFILRNSDLIGETSSKVLMNLPNLFGGKEVIEKAEQLTSNKQAIEALKKVRDLYDIVKRAGFGEYILIDLGMVQHINYYTGLIFRGYAHGIGDDLLSGGRYDKLLGQFGYDIPATGLAINVDNLVAALDDCVRENL” the “soluble on expression in E. coli” value was “not soluble”.
For PEKVTVVPKFGDWDENNPSSADGYTHIFNKVREER, the “soluble on expression in E. coli” value was “soluble”.
With “PFEPKIVAFVCTYCTYAGADLAGTSRLNYAPNVRIVRLPCTGRISPMFILKALQKGADSVLVSGCHPGDCHFTAGNYHARRRWTVFRALLSFTGIPEERIRFSWISAAEGAKFAELINEITDDTRKLG” the “soluble on expression in E. coli” value was “not soluble”.
